Test [1] has as its target T1, hHER3 full length (human, UniProt P21860 20-1342).
T1 construct: On transfected CHO, CHO HER2/HER3, CHO EGFR/HER3 or CHO Flp-In cells; endogenous HER3 of MCF-7 and MDA-MB468 cells in the signalling assays; also called human HER3
Briefly: FACS, 400 nM, competitor 04F10-biotin. A general note: Flow cytometry measures light scatter and fluorescence of single cells or particles in a stream.

Test [2] concerns the target T1, hHER3 full length. Briefly: FACS, 400 nM, competitor 18E08-biotin.
Test [3] has as its target T2, human HER1 (human, UniProt P00533 25-1210).
T2 construct: also called EGFR; ErbB1
As to the kind of experiment: FACS CHO-HER1, 222 nM.

In test [4] the target is T3, human HER3-Fc (R&D Systems, 348-RB) (human, UniProt P21860 20-643).
T3 construct: Bought; also called hHER3-Fc; Fc-HER3; Fc part of the bought chimera not given, not described
Briefly: SPR, HER3-Fc captured by anti-Fc. Background: SPR reads the build-up and loss of mass on a sensor chip optically.

Test [5] concerns the target T2, human HER1. As to the kind of experiment: FACS, CHO-HER1.
Test [6] addresses T4, cHER3ECD (Maccaca fascicularis HER3 extracellular domain) (Macaca fascicularis, UniProt P21860 20-643 (human entry)).
T4 construct: also called cyno HER3ECD; cyno HER3-ECD
T4 chain: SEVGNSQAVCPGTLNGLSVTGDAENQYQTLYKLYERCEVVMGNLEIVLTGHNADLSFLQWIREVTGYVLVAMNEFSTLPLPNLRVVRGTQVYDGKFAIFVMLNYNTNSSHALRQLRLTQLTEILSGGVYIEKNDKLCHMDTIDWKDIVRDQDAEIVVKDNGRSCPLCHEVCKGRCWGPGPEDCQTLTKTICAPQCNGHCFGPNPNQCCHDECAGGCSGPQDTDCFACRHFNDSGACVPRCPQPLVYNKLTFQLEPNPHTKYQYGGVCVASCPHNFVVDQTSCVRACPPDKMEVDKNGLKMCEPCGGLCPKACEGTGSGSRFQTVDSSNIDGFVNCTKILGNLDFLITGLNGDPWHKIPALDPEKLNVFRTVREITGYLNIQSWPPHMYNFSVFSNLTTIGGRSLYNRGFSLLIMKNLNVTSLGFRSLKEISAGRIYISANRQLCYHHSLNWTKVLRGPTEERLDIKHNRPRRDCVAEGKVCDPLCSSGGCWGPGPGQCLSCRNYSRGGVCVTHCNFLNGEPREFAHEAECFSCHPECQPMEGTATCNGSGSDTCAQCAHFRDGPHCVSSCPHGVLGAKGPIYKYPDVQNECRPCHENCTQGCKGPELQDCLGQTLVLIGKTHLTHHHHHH
Briefly: ELISA, coated cHER3-ECD. For orientation: In an ELISA, binding on a coated surface is turned into a signal by an enzyme label.

In test [7] the target is T1, hHER3 full length. As to the kind of experiment: FACS competition with HRG1-β1-EGF, CHO-HER3.
Test [8] deals with T2, human HER1. Briefly: FACS CHO-HER1, 2000 nM.
Test [9] deals with T5, human HER2 (human, UniProt P04626 23-1255).
T5 construct: also called hHER2
As to the kind of experiment: FACS, CHO-HER2.

Test [10] addresses T5, human HER2. As to the kind of experiment: FACS CHO-HER2, 667 nM.
Test [11] has as its target T6, human HER4 (human, UniProt Q15303 26-1308). As to the kind of experiment: FACS CHO-HER4, 222 nM.
The target of test [12] is T6, human HER4. Briefly: FACS CHO-HER4, 667 nM.
The target in test [13] is T1, hHER3 full length. As to the kind of experiment: cell-based or functional assay.
For test [14], the target named is T2, human HER1. As to the kind of experiment: FACS CHO-HER1, 667 nM.
Test [15] addresses T6, human HER4. Briefly: FACS CHO-HER4, 2000 nM.
Test [16] concerns the target T1, hHER3 full length. As to the kind of experiment: FACS, 400 nM, competitor 04C07-biotin.
Test [17] has as its target T5, human HER2. As to the kind of experiment: FACS CHO-HER2, 222 nM.
The target in test [18] is T1, hHER3 full length. As to the kind of experiment: FACS, 400 nM, competitor 23F05-biotin.
Test [19] has as its target T6, human HER4. Briefly: FACS, CHO-HER4.
In test [20] the target is T7, Chimeric chicken Her3-human domain 1 (AA1-206 human, AA207-642 chicken) (chicken/human chimera).
T7 construct: Transmembrane and extracellular regions, on HEK293 cells
T7 chain: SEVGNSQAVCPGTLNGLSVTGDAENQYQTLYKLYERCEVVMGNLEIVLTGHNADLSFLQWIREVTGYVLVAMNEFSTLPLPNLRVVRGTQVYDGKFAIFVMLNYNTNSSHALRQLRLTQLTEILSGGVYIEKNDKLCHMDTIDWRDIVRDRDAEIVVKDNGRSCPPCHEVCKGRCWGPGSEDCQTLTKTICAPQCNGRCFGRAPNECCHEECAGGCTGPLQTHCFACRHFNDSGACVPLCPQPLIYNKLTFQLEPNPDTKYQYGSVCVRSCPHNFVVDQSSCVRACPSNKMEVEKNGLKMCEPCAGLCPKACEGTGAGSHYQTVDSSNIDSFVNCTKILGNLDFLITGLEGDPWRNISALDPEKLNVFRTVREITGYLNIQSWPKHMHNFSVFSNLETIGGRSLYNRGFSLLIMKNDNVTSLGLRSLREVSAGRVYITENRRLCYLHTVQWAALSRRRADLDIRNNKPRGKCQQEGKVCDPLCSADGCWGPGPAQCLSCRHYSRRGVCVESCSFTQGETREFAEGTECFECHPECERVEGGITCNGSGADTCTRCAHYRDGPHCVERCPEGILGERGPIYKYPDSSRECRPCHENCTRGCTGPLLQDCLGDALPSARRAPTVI
Briefly: FACS, HEK293 with chimeric HER3.

Test [21] concerns the target T1, hHER3 full length. Briefly: cell-based or functional assay. The source holds these as a separate data set.
Test [22] deals with T1, hHER3 full length. As to the kind of experiment: FACS, 400 nM, competitor 17C08-biotin.
The target in test [23] is T5, human HER2. Briefly: FACS CHO-HER2, 2000 nM.
Test [24] deals with T8, hHER3 ECD (human HER3 extracellular domain) (human, UniProt P21860 20-643).
T8 construct: also called recombinant HER3-ECD
Briefly: ELISA, coated hHER3-ECD.

Test [25] concerns the target T1, hHER3 full length. As to the kind of experiment: FACS, 400 nM, competitor 21B02-biotin.
In test [26] the target is T3, human HER3-Fc (R&D Systems, 348-RB). Briefly: HRG competition alphascreen.
Test [27] has as its target T1, hHER3 full length. Briefly: cell-based or functional assay. This is another data set of the same source.
The target in test [28] is T8, hHER3 ECD (human HER3 extracellular …). As to the kind of experiment: SPR off rate on HER3-ECD.
Test [29] has as its target T3, human HER3-Fc (R&D Systems, 348-RB). Briefly: HRG competition alphascreen. The source holds these as a separate data set.

Numbering of substitutions follows the chain as printed. In names and notes the source's numbering stands. Where two headings read alike, the source gives them in different places.

Nine molecules from US20130136748A1 (Ablynx, published 2013) can be followed below.

One may read the Kd as a measure of binding affinity in units of concentration. Read a low Kd as tighter binding. What is called kon is a measure of how fast the partners come together. Low values mean slow association, high ones fast association. The term EC50 denotes the concentration needed to bring the measured effect to its halfway point. Low values mean a more potent agent, high ones a less potent agent. For orientation: IC50 means the point on the concentration scale where inhibition reaches its midpoint. A word on the koff: it is the rate constant with which the complex falls apart. A higher koff goes with fast dissociation.

T6 sequence (Q15303 26-1308 limits assumed): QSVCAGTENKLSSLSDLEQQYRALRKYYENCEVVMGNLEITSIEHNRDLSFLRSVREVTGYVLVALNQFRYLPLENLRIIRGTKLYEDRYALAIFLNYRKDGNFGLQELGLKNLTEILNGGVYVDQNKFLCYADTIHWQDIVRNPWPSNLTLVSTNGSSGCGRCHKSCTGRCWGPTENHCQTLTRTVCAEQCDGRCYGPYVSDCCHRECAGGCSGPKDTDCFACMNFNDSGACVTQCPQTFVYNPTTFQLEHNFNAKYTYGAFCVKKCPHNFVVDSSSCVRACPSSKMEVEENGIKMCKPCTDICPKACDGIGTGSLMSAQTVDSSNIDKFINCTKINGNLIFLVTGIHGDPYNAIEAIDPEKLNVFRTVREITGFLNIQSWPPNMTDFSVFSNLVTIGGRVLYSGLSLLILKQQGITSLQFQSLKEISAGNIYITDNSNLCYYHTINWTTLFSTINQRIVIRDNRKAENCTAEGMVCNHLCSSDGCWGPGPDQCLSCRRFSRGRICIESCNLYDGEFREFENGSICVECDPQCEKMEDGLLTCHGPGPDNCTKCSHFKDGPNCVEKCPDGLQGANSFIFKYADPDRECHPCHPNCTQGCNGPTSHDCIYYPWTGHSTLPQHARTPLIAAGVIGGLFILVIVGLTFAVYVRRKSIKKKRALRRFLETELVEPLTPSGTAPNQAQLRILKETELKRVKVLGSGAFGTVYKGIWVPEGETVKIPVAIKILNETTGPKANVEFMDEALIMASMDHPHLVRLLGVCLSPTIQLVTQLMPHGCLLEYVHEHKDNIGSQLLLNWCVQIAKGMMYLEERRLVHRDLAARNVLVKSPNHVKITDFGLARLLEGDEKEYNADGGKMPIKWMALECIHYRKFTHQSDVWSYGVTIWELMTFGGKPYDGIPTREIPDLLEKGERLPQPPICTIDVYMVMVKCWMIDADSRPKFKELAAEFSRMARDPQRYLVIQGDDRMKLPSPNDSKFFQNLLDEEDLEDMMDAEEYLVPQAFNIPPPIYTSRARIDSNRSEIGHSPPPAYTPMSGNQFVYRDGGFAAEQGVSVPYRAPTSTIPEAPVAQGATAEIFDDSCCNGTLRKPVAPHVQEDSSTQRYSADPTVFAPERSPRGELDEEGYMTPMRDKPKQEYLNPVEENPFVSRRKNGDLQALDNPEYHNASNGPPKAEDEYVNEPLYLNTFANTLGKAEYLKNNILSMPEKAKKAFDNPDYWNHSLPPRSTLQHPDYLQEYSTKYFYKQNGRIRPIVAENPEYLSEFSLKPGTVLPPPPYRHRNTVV

B1: 18F05 (VHH)
VHH: EVQLVESGGGLVQPGGSLRLSCVASGFTFSSYWMYWVRQAPGKGVEWVSAISPGGVERYTDSVKGRFTISRDNAKNTLYLQMNSLKSEDTAMYYCARLTSFATPESQGTQVTVSS
notes: also called 18F5
On to B1, for which the “% competition” value was found to be 15% with hHER3 full length [1]; 0% with hHER3 full length [2]; 100% with hHER3 full length [16]; 0% with hHER3 full length [18]; 0% in the test with hHER3 full length [22]; 0% with hHER3 full length [25]. For the same molecule, the MCF with human HER1 [3] stood at 154; with human HER1 [8] it was 133; with human HER2 [10] it was 347; in the test with human HER4 [11], 149; in the test with human HER4 [12], 149; with human HER1 [14], 60. The MCF in the test with human HER4 [15] is 120; with human HER2 [17] it was 436; with human HER2 [23], 256. The molecule further displayed a Kd in [4] of 240 pM. Moreover, the on-rate (kon) in test [4] turned out to be 427000 M⁻¹ s⁻¹. Moreover, the binding result with human HER1 [5] is reported as “no binding (tested: 2000 nM)”; with human HER2 [9] it was “no binding (tested: 2000 nM)”; in the test with human HER4 [19] it was “no binding (tested: 2000 nM)”; in [20], “binds”. Besides, the EC50 in [6] and in test [24] was 290 pM in each case. In the test with hHER3 full length [7], this molecule had an IC50 of 20100 pM. The “IC50, HRG1-β1 induced pHER3, MCF-7” value with hHER3 full length [13] is 1.53e-09 M. Further, the “IC50, HRG1-β1 induced pHER3, MDA-MB468” value with hHER3 full length [13] is 1.8e-08 M. The “IC50, HRG1-β1 induced pAkt, MCF-7” value in the test with hHER3 full length [21] was found to be 8.04e-09 M. The “IC50, HRG1-β1 induced pERK1/2, MCF-7” value with hHER3 full length [21] is 8.98e-08 M.

B2: HER3MS00130 (VHH)
VHH: EVQLVESGGGLVQPGGSLRLSCAASGFTFSSYPMSWVRQAPGKGPAWVSTVSPGGITTSYADSVKGRFTISRDNSKNTLYLQMNSLRPEDTAVYYCLRDLGNRGQGTLVTVSS
notes: 04C07 basic + N101G
The molecule B2 displayed an IC50 in test [26] of 880 pM. The “IC50 pHER3, HRG1-β1 stimulated MCF7” value in the test with hHER3 full length [27] amounted to 9.38e-09 M.

B3: HER3MS00132 (VHH)
VHH: B2 VHH with G101S
notes: 04C07 basic + N101S
On to B3, for which the IC50 in [26] was found to be 1000 pM. In addition, in the test with hHER3 full length [27], the “IC50 pHER3, HRG1-β1 stimulated MCF7” value turned out to be 1.31e-08 M.

B4: HER3MS00131 (VHH)
VHH: B2 VHH with A46E, G101S
notes: 04C07 basic + A46E + N101S
With B4, in test [26], the IC50 was 5800 pM. Moreover, the “IC50 pHER3, HRG1-β1 stimulated MCF7” value in the test with hHER3 full length [27] turned out to be 2.26e-07 M.

B5: HER3MS00076 (VHH)
VHH: EVQLVESGGGLVQPGGSLRLSCAASGSIGGLNAMAWYRQAPGKERELVAGIFGVGSTRYADSVKGRFTISRDISKNTVFLQMNSLRSEDTAVYYCRMSSVTRGSSDYWGQGTLVTVSS
notes: 17B05 + A74S, N83R, Q108L; also called HER3MS0076; 17B05 basic variant
In the case of B5, the koff in test [28] came to 0.00017 s⁻¹. This molecule showed an IC50 in test [29] of 788 pM.

B6: HER3MS00085 (VHH)
VHH: B5 VHH with S87A
notes: 17B05 basic + S84A; also called HER3MS0085
The molecule B6 registered a koff in test [28] of 0.00019 s⁻¹. The molecule further yielded an IC50 in test [29] of 760 to 940 pM.

B7: HER3MS00080 (VHH)
VHH: B5 VHH with I73N, F79Y
notes: 17B05 basic + I73N + F79Y; also called HER3MS0080
In turn, B7 displayed a koff in test [28] of 0.00018 s⁻¹. Also, in [29], the IC50 was found to be 731 pM.

B8: HER3MS00084 (VHH)
VHH: B5 VHH with S87P
notes: 17B05 basic + S84P; also called HER3MS0084
In test [28], B8 came in with a koff of 0.00018 s⁻¹. The molecule further gave an IC50 in test [29] of 940 pM.

B9: HER3MS00083 (VHH)
VHH: B5 VHH with I73N, F79Y, R96A
notes: also called HER3MS0083
In test [28], B9 showed a koff of 0.00084 s⁻¹. The same molecule had an IC50 in test [29] of 4950 pM.
